Positions of bridges follow the written chain, without caps; N, C: chain ends. Non-standard residues stand in square brackets, D forms with d. Groups on a side chain read outwards from the residue. Primed or numbered codes have the meaning given here. No end group written: not given here. εdLys = D-Lys linked through its epsilon amine (k^ε); PEG5′ = PEG5 spacer, as named in the construct; Cy3s = Cy3s fluorophore, as named; Cy5s = Cy5s fluorophore, as named; Orn = NCCC[C@H](N)C(=O)O; Mpa = O=C(O)CCS
T1: human oxytocin receptor (hOTR) (human, UniProt P30559 1-389)
T1 construct: oxytocin receptor, human; in membrane preparations or on cells; constructs are in the Supporting Information; source: HEK293, stably expressing; membrane preparations (radioligand assay); free-floating cells (FACS)
T1 sequence (looked up): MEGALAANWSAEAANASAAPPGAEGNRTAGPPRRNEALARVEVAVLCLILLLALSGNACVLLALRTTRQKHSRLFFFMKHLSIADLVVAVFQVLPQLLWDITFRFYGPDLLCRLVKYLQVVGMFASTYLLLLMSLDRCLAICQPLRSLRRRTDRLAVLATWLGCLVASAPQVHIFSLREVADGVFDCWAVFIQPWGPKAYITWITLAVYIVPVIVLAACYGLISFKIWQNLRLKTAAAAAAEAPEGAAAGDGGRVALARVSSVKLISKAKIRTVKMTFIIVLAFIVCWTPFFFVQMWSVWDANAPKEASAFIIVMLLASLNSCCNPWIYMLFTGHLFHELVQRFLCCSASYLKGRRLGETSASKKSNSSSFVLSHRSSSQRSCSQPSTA

T2: human vasopressin V1b receptor (hV1bR) (human, UniProt P47901 1-424)
T2 construct: vasopressin V1b receptor, human; in membrane preparations; source: HEK293, stably expressing; membrane preparations
T2 sequence (looked up): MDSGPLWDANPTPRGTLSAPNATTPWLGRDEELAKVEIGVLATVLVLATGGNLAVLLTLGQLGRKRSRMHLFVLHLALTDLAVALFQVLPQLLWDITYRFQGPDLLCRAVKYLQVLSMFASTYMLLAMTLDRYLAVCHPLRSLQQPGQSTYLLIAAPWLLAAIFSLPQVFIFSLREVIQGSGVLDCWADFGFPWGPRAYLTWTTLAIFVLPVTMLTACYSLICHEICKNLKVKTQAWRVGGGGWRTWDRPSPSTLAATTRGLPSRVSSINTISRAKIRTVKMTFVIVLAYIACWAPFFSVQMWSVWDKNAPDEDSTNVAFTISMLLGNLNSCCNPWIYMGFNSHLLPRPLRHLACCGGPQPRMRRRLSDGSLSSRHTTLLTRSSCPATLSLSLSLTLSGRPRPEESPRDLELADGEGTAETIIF

T3: murine vasopressin V1b receptor (mV1bR) (murine, UniProt Q9WU02 1-421)
T3 construct: vasopressin V1b receptor, murine; in membrane preparations; source: HEK293, transiently expressing; membrane preparations
T3 sequence (looked up): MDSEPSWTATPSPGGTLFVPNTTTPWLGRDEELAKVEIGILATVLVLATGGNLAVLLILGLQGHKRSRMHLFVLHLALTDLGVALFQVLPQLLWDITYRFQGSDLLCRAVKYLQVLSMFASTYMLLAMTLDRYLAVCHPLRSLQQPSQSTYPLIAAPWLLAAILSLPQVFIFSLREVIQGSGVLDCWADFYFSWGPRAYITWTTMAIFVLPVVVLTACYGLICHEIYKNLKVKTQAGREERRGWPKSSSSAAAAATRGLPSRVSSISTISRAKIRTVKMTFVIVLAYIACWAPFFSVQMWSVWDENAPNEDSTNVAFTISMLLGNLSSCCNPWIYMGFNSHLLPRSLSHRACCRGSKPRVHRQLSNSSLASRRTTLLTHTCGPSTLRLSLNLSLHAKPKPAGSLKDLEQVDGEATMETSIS

T4: murine oxytocin receptor (mOTR) (murine, UniProt P97926 1-388)
T4 construct: oxytocin receptor, murine; in membrane preparations; source: HEK293, transiently expressing; membrane preparations
T4 sequence (looked up): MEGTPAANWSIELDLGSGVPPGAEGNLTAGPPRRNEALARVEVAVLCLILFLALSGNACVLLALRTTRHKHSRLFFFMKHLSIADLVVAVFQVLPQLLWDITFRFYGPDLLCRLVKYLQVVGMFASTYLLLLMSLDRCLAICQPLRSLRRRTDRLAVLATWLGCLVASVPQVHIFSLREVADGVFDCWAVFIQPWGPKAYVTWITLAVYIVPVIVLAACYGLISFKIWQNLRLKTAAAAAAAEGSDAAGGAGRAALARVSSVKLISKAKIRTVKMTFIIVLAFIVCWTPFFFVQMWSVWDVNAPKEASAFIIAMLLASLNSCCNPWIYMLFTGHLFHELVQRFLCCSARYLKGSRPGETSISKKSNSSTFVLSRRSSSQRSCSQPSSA


Key:
Conditions in all cases: one partner purified
[1] = target: T1, human oxytocin receptor (hOTR); assay: radioligand binding; displacement of [3H]-OT or [3H]-VP from membrane preparations of HEK293 cells stably expressing the human receptor; dose-response curves in duplicates, at least three independent experiments; Ki >10 µM assigned where <25% of the radioligand was displaced at 10 µM
[2] = target: T2, human vasopressin V1b receptor (hV1bR); assay: as above
[3] = target: T5, human vasopressin V1a receptor (hV1aR) (human, UniProt P37288 1-418); assay: as above
T5 construct: vasopressin V1a receptor, human; in membrane preparations; source: HEK293, stably expressing; membrane preparations
T5 sequence (P37288 whole entry): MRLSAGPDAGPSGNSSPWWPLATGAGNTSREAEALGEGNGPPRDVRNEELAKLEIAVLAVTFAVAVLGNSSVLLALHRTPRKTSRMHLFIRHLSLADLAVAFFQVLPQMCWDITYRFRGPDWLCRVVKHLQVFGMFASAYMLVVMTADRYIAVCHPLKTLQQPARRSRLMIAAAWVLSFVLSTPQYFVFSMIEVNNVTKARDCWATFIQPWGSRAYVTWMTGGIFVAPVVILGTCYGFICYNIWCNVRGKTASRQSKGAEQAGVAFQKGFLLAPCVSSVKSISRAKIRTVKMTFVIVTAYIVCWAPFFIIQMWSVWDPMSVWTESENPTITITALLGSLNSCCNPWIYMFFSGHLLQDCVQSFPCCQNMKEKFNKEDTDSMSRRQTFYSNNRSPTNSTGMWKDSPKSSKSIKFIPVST

[4] = target: T3, murine vasopressin V1b receptor (mV1bR); assay: radioligand binding; displacement of [3H]-OT or [3H]-VP from membrane preparations of HEK293 cells transiently expressing the murine receptor; dose-response curves in duplicates, at least three independent experiments; Ki >10 µM assigned where <25% of the radioligand was displaced at 10 µM
[5] = target: T6, murine vasopressin V1a receptor (mV1aR) (murine, UniProt Q62463 1-423); assay: as above
T6 construct: vasopressin V1a receptor, murine; in membrane preparations; source: HEK293, transiently expressing; membrane preparations
T6 sequence (Q62463 whole entry): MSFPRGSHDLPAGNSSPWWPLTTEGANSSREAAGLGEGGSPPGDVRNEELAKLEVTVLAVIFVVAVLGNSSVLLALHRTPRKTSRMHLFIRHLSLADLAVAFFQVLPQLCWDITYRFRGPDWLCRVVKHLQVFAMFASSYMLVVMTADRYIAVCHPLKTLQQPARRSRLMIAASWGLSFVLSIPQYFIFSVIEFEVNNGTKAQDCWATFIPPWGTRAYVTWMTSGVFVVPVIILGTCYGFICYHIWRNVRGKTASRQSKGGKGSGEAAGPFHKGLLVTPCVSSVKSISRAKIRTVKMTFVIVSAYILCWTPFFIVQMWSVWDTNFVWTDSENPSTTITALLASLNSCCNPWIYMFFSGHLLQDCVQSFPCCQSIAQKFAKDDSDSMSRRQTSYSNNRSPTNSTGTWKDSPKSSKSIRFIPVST

[6] = target: T4, murine oxytocin receptor (mOTR); assay: as above
[7] = target: T7, murine vasopressin V2 receptor (mV2R) (murine, UniProt O88721 1-371); assay: as above
T7 construct: vasopressin V2 receptor, murine; in membrane preparations; source: HEK293, transiently expressing; membrane preparations
T7 sequence (O88721 whole entry): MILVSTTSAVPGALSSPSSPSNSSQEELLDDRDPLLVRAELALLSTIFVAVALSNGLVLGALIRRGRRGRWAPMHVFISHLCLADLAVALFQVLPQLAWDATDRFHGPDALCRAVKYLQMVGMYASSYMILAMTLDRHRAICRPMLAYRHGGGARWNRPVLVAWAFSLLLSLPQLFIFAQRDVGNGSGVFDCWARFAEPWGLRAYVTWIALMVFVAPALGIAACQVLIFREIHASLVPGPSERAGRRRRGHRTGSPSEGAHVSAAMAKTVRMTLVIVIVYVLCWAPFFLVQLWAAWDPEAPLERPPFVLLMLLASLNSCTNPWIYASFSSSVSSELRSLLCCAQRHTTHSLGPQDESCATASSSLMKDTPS

Row | Binder | Ki [1] [nM] | Ki [2] [nM] | Ki [3] [nM] | Ki [4] [nM] | Ki [5] [nM] | Ki [6] [nM] | Ki [7] [nM]
1 | [Mpa]YIQNCP[Orn]G (disulfide 1-6; not fully specified (residue 8)) [d(Orn)^8OT‐[d‐PEG5‐k^ε‐AF488]^8] | 22.6 | 1800 | 1430 | – | – | – | –
2 | [Mpa]YIQNCP[Orn]([dD-PEG5′-Cy5s])G (disulfide 1-6) [d(Orn)^8OT‐[d‐PEG5‐Cy5s]^8] | 6 | 1320 | 553 | – | – | – | –
3 | [Mpa]YIQNCP[Orn]([PEG5′-Cy3s])G (disulfide 1-6) [d(Orn)^8OT‐[PEG5‐Cy3s]^8] | 1.5 | 372 | 80 | – | – | – | –
4 | [Mpa]YIQNCP[Orn]G (disulfide 1-6) [d(Orn)^8OT] | 0.7 | 0.8 | 0.4 | – | – | – | –
5 | [Mpa]YIQNCP[Orn]([PEG5′-Cy5s])G (disulfide 1-6) [d(Orn)^8OT‐[PEG5‐Cy5s]^8] | 1.3 | 376 | 70 | – | – | – | –
6 | [Mpa]YIQNCP[Orn]([εdLys-εdLys-Cy3s])G (disulfide 1-6) [d(Orn)^8OT‐[k^ε‐k^ε‐Cy3s]^8] | 0.8 | 10 | 3.3 | – | – | – | –
7 | CYFQNCPRG (vasopressin (arginine at position 8), endogenous nonapeptide; numbers count on: the mature nonapeptide) [Vasopressin (VP)] | – | – | – | 0.4 | 1 | 8.1 | –
8 | [Mpa]YIQNCP[Orn](Cy5s)G (disulfide 1-6) [d(Orn)^8OT‐[Cy5s]^8] | 0.9 | 86 | 23 | – | – | – | –
9 | [Mpa]YIQNCP[Orn]([dD-PEG5′-εdLys-TAMRA])G (disulfide 1-6) [d(Orn)^8OT‐[d‐PEG5‐k^ε‐TAMRA]^8] | 7.5 | 932 | 631 | – | – | – | –
10 | [Mpa]YIQNCP[Orn]([PEG5′-PEG5′-εdLys-Cy3s])G (disulfide 1-6) [d(Orn)^8OT‐[PEG5‐PEG5‐k^ε‐Cy3s]^8] | 1.5 | 199 | 22 | – | – | – | –
11 | [Mpa]INYQCP[Orn]([dD-PEG5′-εdLys-Cy3s])G (disulfide 1-6 (inferred)) [scrambled cyclic tracer dCINYQCP(Orn)G‐[d‐PEG5‐k^ε‐Cy3s]^8] | > 10000 | > 10000 | > 10000 | > 10000 | > 10000 | > 10000 | > 10000
12 | CYIQNCPLG (oxytocin, endogenous nonapeptide ligand of OTR; numbers count on: the mature nonapeptide) [Oxytocin (OT)] | – | – | – | 416 | 1400 | – | 1570
13 | [Mpa]YIQNCP[Orn]([PEG5′-εdLys-Cy5s])G (disulfide 1-6) [d(Orn)^8OT‐[PEG5‐k^ε‐Cy5s]^8] | 1.2 | 176 | 11 | – | – | – | –
14 | [Mpa]YIQNCP[Orn]([PEG5′-εdLys-Cy3s])G (disulfide 1-6) [d(Orn)^8OT‐[PEG5‐k^ε‐Cy3s]^8] | 1.4 | 242 | 21 | – | – | – | –

— paper PMC12603982 (Angewandte Chemie (International Ed. in English), 2025)
